Results as given in patent US20260201030A1 (EVOPOINT BIOSCIENCES, published 2026).

Target: T1, human Claudin18.2 (human, UniProt P56856-2 1-261)
T1 construct: whole, on cells; also called CLDN18.2; HEK293T-Claudin18.2 (human)
Experiment: cell-based ELISA on L929-claudin 18.2 (human) and NUGC4 cells, ADC

| binding result | Binder |
| --- | --- |
| binds | ADC formed by conjugation of 25C7A5-HZ2 (antibody, human IgG1, kappa, toxin linker conjugated to cysteine sulfhydryl groups after TCEP reduction (positions not given); toxin linker conjugated to cysteine sulfhydryl groups after TCEP reduction (positions not given); DAR 7.10, The label B82 is not explained; also called conjugated 25C7A5-HZ2; 25C7A5-HZ2-B82) heavy: not shown light: EIVLTQSPATLSLSPGERATLSCKASENVKTYVSWYQQKPGQSPRLLIYEASNRYTGVPARFSGSGSATDFTLTISSLEPEDFAVYFCGQTYSFPPTFGQGTKVEIKRTVAAPSVFIFPPSDEQLKSGTASVVCLLNNFYPREAKVQWKVDNALQSGNSQESVTEQDSKDSTYSLSSTLTLSKADYEKHKVYACEVTHQGLSSPVTKSFNRGEC |
| binds | ADC formed by conjugation of 25C7A5-HZ1 (antibody, human IgG1, kappa, toxin linker conjugated to cysteine sulfhydryl groups after TCEP reduction (positions not given); toxin linker conjugated to cysteine sulfhydryl groups after TCEP reduction (positions not given); DAR 6.82 (B82 batch) or 7.97 (B81 batch), also called conjugated 25C7A5-HZ1; 25C7A5-HZ1-B82) heavy: not shown light: EIVLTQSPATLSLSPGERATLSCKASENVKTYVSWYQQKPGQSPRLLIYEASNRYTGVPARFSGSGSATDFTLTISSLEPEDFAVYFCGQTYSFPPTFGQGTKVEIKRTVAAPSVFIFPPSDEQLKSGTASVVCLLNNFYPREAKVQWKVDNALQSGNSQESVTEQDSKDSTYSLSSTLTLSKADYEKHKVYACEVTHQGLSSPVTKSFNRGEC |
